Four molecules from US20080125365A1 (UNIVERSITY OF IOWA RESEARCH FOUNDATION, published 2008) can be followed below.

Where only a bound is given, the exact number is not on record here.

Assay [1] addresses recombinant soluble TLR4 extracellular domain (amino acids 24-634), FLAG-tagged (UniProt O00206). In words: co-expression with TLR4ECD, harvested medium incubated with [3H]LOS:sCD14, gel filtration. Background: Size exclusion chromatography separates by hydrodynamic size, large species first.
The target of assay [2] is T1, recombinant soluble TLR4 extracellular domain (amino acids 24-634), FLAG-tagged (UniProt O00206 24-634).
T1 construct: range 24-634; Used as concentrated conditioned medium of HEK293T cells, not purified; also called TLR4ECD; FLAG-TLR4ECD; not shown: N-terminal FLAG tag from pFLAG-CMV
T1 sequence (O00206 24-634): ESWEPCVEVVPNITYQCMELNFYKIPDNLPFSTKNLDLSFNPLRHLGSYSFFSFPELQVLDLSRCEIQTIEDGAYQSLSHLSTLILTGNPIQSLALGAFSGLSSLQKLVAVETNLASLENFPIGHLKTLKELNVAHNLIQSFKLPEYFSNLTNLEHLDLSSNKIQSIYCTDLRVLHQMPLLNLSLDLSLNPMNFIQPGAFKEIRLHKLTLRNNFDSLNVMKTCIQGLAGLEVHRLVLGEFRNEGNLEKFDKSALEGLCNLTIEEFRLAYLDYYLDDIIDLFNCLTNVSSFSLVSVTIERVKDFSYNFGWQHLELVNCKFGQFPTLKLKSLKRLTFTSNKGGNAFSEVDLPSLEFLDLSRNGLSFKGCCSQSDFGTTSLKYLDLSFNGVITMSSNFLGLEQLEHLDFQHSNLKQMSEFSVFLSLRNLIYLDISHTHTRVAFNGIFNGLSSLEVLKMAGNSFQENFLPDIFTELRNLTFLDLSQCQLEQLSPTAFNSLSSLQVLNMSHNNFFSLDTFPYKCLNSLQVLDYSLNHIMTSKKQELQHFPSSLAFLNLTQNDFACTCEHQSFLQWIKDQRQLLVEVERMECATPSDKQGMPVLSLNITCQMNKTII
In words: saturation binding of [3H]LOS:MD-2 (25,000 cpm/pmol) to soluble TLR4ECD, complex resolved by gel filtration.

Assay [3] has as its target T1, recombinant soluble TLR4 extracellular …. In words: [3H]LOS:MD-2 F126A incubated 30 min at 37 C with concentrated TLR4ECD medium, Mr ~190,000 complex by gel filtration, Scatchard analysis.
For assay [4], the target named is T2, TLR4 stably expressed on HEK293 cells (HEK/TLR4) (UniProt O00206 24-839, limits assumed).
T2 construct: whole, on cells; Cells from Eisai Research Institute (Yang et al., 2000) or Invivogen; also called HEK293/TLR4; cellular TLR4
T2 sequence (O00206 24-839 limits assumed): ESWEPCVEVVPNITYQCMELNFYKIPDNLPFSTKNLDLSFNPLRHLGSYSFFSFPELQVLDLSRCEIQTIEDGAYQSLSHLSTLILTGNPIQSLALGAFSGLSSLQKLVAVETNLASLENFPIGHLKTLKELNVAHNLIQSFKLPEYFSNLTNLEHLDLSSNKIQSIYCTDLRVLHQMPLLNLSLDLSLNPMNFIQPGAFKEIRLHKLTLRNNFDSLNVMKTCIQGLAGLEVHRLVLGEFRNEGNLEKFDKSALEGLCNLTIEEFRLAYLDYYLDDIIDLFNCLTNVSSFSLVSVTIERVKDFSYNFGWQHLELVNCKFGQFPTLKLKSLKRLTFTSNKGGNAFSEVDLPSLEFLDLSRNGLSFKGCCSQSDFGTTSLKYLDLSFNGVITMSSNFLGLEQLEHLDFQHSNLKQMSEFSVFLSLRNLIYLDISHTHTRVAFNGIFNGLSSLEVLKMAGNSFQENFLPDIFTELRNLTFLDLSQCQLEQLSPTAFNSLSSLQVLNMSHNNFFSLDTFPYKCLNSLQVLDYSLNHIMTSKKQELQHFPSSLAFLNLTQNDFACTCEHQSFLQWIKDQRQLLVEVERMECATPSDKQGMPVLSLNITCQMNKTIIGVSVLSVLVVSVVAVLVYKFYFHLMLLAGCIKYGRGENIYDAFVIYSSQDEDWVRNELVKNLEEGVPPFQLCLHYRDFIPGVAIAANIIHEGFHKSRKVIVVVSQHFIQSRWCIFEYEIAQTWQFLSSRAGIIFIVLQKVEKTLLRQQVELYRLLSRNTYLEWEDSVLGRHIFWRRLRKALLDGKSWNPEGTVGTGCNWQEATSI
Kind of assay: overnight incubation with HEK/TLR4 cells at 37 C, cell-associated radioactivity by liquid scintillation.

Assay [5] concerns the target T1, recombinant soluble TLR4 extracellular …. Kind of assay: culture medium of HEK293T cells secreting TLR4ECD spiked with [3H]LOS:sCD14, Sephacryl S200 gel filtration.

Sequence of recombinant soluble TLR4 extracellular domain (amino acids 24-634), FLAG-tagged (UniProt O00206) (O00206 24-634): as the sequence (O00206 24-634) above

For “human MD-2 Y131A.K132A double mutant (from UniProt Q9Y6Y9 19-160)”, the reduction of the yield of ([^3H]LOS:MD-2/TLR4ECD)2 against the single mutants in assay [1] stood at 50%.

B1: monomeric complex of wild-type (hexa-acylated) N. meningitidis LOS with wild-type human MD-2-His6 (ligand)
chain: QKQYWVCNSSDASISYTYCDKMQYPISINVNPCIELKRSKGLLHIFYIPRRDLKQLYFNLYITVNTMNLPKRKEVICRGSDDDYSFCRALKGETVNTTISFSFKGIKFSKGKYKCVVEAISGSPEEMLFCLEFVILHQPNSNHHHHHH
notes: mature; Mr ~25,000; Radiolabel (3H or 14C) is on the LOS; also called [^3H]LOS:MD-2; [^3H]LOS:MD-2-His6
As to B1, the Kd – broadly, the free concentration of one partner at which half of the binding sites on the other are occupied at equilibrium, for simple one-to-one binding – in assay [2] is below 0.3 nM.

B2: monomeric complex of wild-type LOS with human MD-2 F126A (ligand)
chain: QKQYWVCNSSDASISYTYCDKMQYPISINVNPCIELKRSKGLLHIFYIPRRDLKQLYFNLYITVNTMNLPKRKEVICRGSDDDYSFCRALKGETVNTTISFSFKGIKASKGKYKCVVEAISGSPEEMLFCLEFVILHQPNSN
notes: mature; Made in HEK293T cells (MD-2-FLAG-His) for analytical work and in High Five insect cells for preparative amounts; also called LOS:MD-2^F126A; [^3H]LOS:MD-2^F126A; not shown: C-terminal tag: pEF-BOS-MD-2^F126A-FLAG-His insert moved into pBAC11; which tag
Take B2: the Kd in assay [3] was around 0.2 nM.

B3: monomeric complex of LOS with soluble CD14 (other)
chain: TTPEPCELDDEDFRCVCNFSEPQPDWSEAFQCVSAVEVEIHAGGLNLEPFLKRVDADADPRQYADTVKALRVRRLTVGAAQVPAQLLVGALRVLAYSRLKELTLEDLKITGTMPPLPLEATGLALSSLRLRNVSWATGRSWLAELQQWLKPGLKVLSIAQAHSPAFSCEQVRAFPALTSLDLSDNPGLGERGLMAALCPHKFPAIQNLALRNTGMETPTGVCAALAAAGVQPHSLDLSHNSLRATVNPSAPRCMWSSALNSLNLSFAGLEQVPKGLPAKLRVLDLSCNRLNRAPQPDELPEVDNLTLDGNPFLVPGTALPHEGSMNSGVVPACARSTLSVGVSGTLVL
notes: Mr ~60,000; also called LOS:sCD14; [^3H]LOS:sCD14
Take B3: the binding result was “no binding (tested: 0.75 ng/ml ^3H-LOS)” in assay [4] and “no binding (tested: 1 nM [^3H]LOS:sCD14)” in assay [5].
